Here are results for two substances from patent US20130071424A1.

Broadly, the EC50 is the concentration giving half of the maximal effect.

Experiment [1] deals with AIDSVAX recombinant gp120 immunogen A244 (AIDSVAX subtype E) (HIV-1 subtype E (CRF01_AE) strain A244). The experiment can be described thus: ELISA, gp120 coated at 3 µg/ml, antibody titrated 0.002-10 µg/ml. In general terms: An ELISA detects its analyte on a solid surface through an enzyme-linked reagent.
Experiment [2] addresses AIDSVAX recombinant gp120 immunogen MN (AIDSVAX subtype B) (HIV-1 subtype B strain MN) (UniProt P05877). Described as above.

Regarding human anti-V2 monoclonal antibody 697-D, the values for the concentration for a half-maximal effect (EC50) in experiment [1] and in experiment [2] were 5.7 ng/mL and 5.5 ng/mL, respectively.
The matching figures for human anti-V2 monoclonal antibody 2158: 4.1 ng/mL and 3.9 ng/mL.
